Measurements taken from US7558625B2, “Combined micro-channel generation and iontophoresis for transdermal delivery of pharmaceutical agents” (TransPharma Medical Ltd., priority 2004, dated 2009).

Assay: Transdermal delivery of hGH by ViaDerm and iontophoresis in rats, high/low hGH dose vs SC
Assay type: in vivo
Design: hGH plasma levels: unit not given here
Conditions: for hGH plasma levels: Avg.
Method: In the present experiment a power supply (parallel connection instead of serial) was used in order to improve the power supply.
Human GH solution was prepared from a 12 mg Genotropin vial (Genotropin®, Pharmacia and Upjohn). The levels of hGH in serum were analyzed using Elisa kit (DSL Inc. Webster Tex., USA). HPLC was used to quantitate SC solution.
ViaDerm operating parameters: Burst length—700 μsec; Voltage—330V; Number of bursts—2; 2 applications on the same skin area (150 micro-channels/cm^2); Two application sites (total area 2.8 cm^2); Without current limitation; 80 μm diameter electrode of the electrode arrays.
Iontophoresis application parameters: Current density 0.64 mA/cm^2 (total 1.8 mA). Current elevation time (from 0-max) 20 seconds. Current application time 8 hours.

[1] = ViaDerm + Iontophoresis off 15 mg
[2] = ViaDerm + Iontophoresis on 1.5 mg
[3] = ViaDerm + Iontophoresis on 15 mg

hGH: human growth hormone (Genotropin, Pharmacia and Upjohn)
hGH plasma levels (1.5 mg hGH, Iontoph. on, +VD, 0.0 hr): 0.1
hGH plasma levels (1.5 mg hGH, Iontoph. on, +VD, 1.0 hr): 225.1
hGH plasma levels (1.5 mg hGH, Iontoph. on, +VD, 2.0 hr): 346.3
hGH plasma levels (1.5 mg hGH, Iontoph. on, +VD, 3.0 hr): 617.3
hGH plasma levels (1.5 mg hGH, Iontoph. on, +VD, 4.0 hr): 444.5
hGH plasma levels (1.5 mg hGH, Iontoph. on, +VD, 6.0 hr): 184.3
hGH plasma levels (1.5 mg hGH, Iontoph. on, +VD, 8.0 hr): 111.3
hGH plasma levels (15 mg hGH, Iontoph. off, +VD, 0.0 hr): 0.1
hGH plasma levels (15 mg hGH, Iontoph. off, +VD, 1.0 hr): 89.7
hGH plasma levels (15 mg hGH, Iontoph. off, +VD, 2.0 hr): 178.7
hGH plasma levels (15 mg hGH, Iontoph. off, +VD, 3.0 hr): 283.7
hGH plasma levels (15 mg hGH, Iontoph. off, +VD, 4.0 hr): 389.4
hGH plasma levels (15 mg hGH, Iontoph. off, +VD, 6.0 hr): 573.1
hGH plasma levels (15 mg hGH, Iontoph. off, +VD, 8.0 hr): 873.4
hGH plasma levels (15 mg hGH, Iontoph. on, +VD, 0.0 hr): 0.0
hGH plasma levels (15 mg hGH, Iontoph. on, +VD, 1.0 hr): 504.8
hGH plasma levels (15 mg hGH, Iontoph. on, +VD, 2.0 hr): 958.5
hGH plasma levels (15 mg hGH, Iontoph. on, +VD, 3.0 hr): 2011.6
hGH plasma levels (15 mg hGH, Iontoph. on, +VD, 4.0 hr): 2204.9
hGH plasma levels (15 mg hGH, Iontoph. on, +VD, 6.0 hr): 1802.0
hGH plasma levels (15 mg hGH, Iontoph. on, +VD, 8.0 hr): 1244.1
hGH plasma levels (15 mg hGH, Iontoph. on, intact, 0.0 hr): 0.1
hGH plasma levels (15 mg hGH, Iontoph. on, intact, 1.0 hr): 1.9
hGH plasma levels (15 mg hGH, Iontoph. on, intact, 2.0 hr): 7.2
hGH plasma levels (15 mg hGH, Iontoph. on, intact, 3.0 hr): 8.3
hGH plasma levels (15 mg hGH, Iontoph. on, intact, 4.0 hr): 9.2
hGH plasma levels (15 mg hGH, Iontoph. on, intact, 6.0 hr): 5.4
hGH plasma levels (15 mg hGH, Iontoph. on, intact, 8.0 hr): 4.7
AUC (Intact + Iontophoresis 15 mg): 47 ng·h/mL
Bioavailability (Intact + Iontophoresis 15 mg): 0.05%
hGH plasma levels (S.C. 150 ug/0.2 ml hGH, 0.0 hr): 0.1
hGH plasma levels (S.C. 150 ug/0.2 ml hGH, 1.0 hr): 153.0
hGH plasma levels (S.C. 150 ug/0.2 ml hGH, 2.0 hr): 156.8
hGH plasma levels (S.C. 150 ug/0.2 ml hGH, 3.0 hr): 127.8
hGH plasma levels (S.C. 150 ug/0.2 ml hGH, 4.0 hr): 120.1
hGH plasma levels (S.C. 150 ug/0.2 ml hGH, 6.0 hr): 75.3
hGH plasma levels (S.C. 150 ug/0.2 ml hGH, 8.0 hr): 43.4
AUC (SC 150 ug): 812 ng·h/mL
Bioavailability (SC 150 ug (reference)): 100%
AUC [1]: 3156 ng·h/mL
Bioavailability [1]: 3.9%
AUC [2]: 2336 ng·h/mL
Bioavailability [2]: 28.8%
AUC [3]: 11630 ng·h/mL
Bioavailability [3]: 14.3%
clinical observations at the site of the patch application (abdomen, current on 0.64 mA/cm^2 for 8 hours): Black burning marks (3rd degree burns)
clinical observations at the site of the patch application (animals in which the power supply was off): No burn marks
hGH delivery by iontophoresis alone (intact skin, 15 mg hGH): does not cause hGH delivery
